Data from article PMC10758103.

Target: T1, p32 stably overexpressed from lentiviral pCDH-p32, Q07021
T1 chain: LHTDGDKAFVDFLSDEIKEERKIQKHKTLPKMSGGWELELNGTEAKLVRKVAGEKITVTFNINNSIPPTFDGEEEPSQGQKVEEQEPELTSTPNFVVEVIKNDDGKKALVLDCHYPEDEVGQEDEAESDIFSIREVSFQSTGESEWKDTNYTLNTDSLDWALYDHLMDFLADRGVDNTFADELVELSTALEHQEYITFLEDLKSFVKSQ
Assay: cross-linking; 786-O-pCDH and 786-O-p32 cells treated with gradients of elesclomol and CuSO4; 0.1 mM disuccinimidyl suberate (DSS) on cells, 30 minutes at room temperature, quenched with 50 mM Tris; 8% SDS-PAGE and western blot
Conditions: remark: other sources report otherwise

B1: p32 stably overexpressed from lentiviral pCDH-p32, Q07021 74-282 (natural protein)
chain: T1 chain
  stoichiometry N: 2
